B1: K491D: PLCγ1 variant with K491D mutation in the nucleotide binding site (protein, UniProt P19174 2-1290, looked up, variant K491D)
1-phosphatidylinositol …: AGAASPCANGCGPGAPSDAEVLHLCRSLEVGTVMTLFYSKKSQRPERKTFQVKLETRQITWSRGADKIEGAIDIREIKEIRPGKTSRDFDRYQEDPAFRPDQSHCFVILYGMEFRLKTLSLQATSEDEVNMWIKGLTWLMEDTLQAPTPLQIERWLRKQFYSVDRNREDRISAKDLKNMLSQVNYRVPNMRFLRERLTDLEQRSGDITYGQFAQLYRSLMYSAQKTMDLPFLEASTLRAGERPELCRVSLPEFQQFLLDYQGELWAVDRLQVQEFMLSFLRDPLREIEEPYFFLDEFVTFLFSKENSVWNSQLDAVCPDTMNNPLSHYWISSSHNTYLTGDQFSSESSLEAYARCLRMGCRCIELDCWDGPDGMPVIYHGHTLTTKIKFSDVLHTIKEHAFVASEYPVILSIEDHCSIAQQRNMAQYFKKVLGDTLLTKPVEISADGLPSPNQLKRKILIKHKKLAEGSAYEEVPTSMMYSENDISNSIDNGILYLEDPVNHEWYPHYFVLTSSKIYYSEETSSDQGNEDEEEPKEVSSSTELHSNEKWFHGKLGAGRDGRHIAERLLTEYCIETGAPDGSFLVRESETFVGDYTLSFWRNGKVQHCRIHSRQDAGTPKFFLTDNLVFDSLYDLITHYQQVPLRCNEFEMRLSEPVPQTNAHESKEWYHASLTRAQAEHMLMRVPRDGAFLVRKRNEPNSYAISFRAEGKIKHCRVQQEGQTVMLGNSEFDSLVDLISYYEKHPLYRKMKLRYPINEEALEKIGTAEPDYGALYEGRNPGFYVEANPMPTFKCAVKALFDYKAQREDELTFIKSAIIQNVEKQEGGWWRGDYGGKKQLWFPSNYVEEMVNPVALEPEREHLDENSPLGDLLRGVLDVPACQIAIRPEGKNNRLFVFSISMASVAHWSLDVAADSQEELQDWVKKIREVAQTADARLTEGKIMERRKKIALELSELVVYCRPVPFDEEKIGTERACYRDMSSFPETKAEKYVNKAKGKKFLQYNRLQLSRIYPKGQRLDSSNYDPLPMWICGSQLVALNFQTPDKPMQMNQALFMTGRHCGYVLQPSTMRDEAFDPFDKSSLRGLEPCAISIEVLGARHLPKNGRGIVCPFVEIEVAGAEYDSTKQKTEFVVDNGLNPVWPAKPFHFQISNPEFAFLRFVVYEEDMFSDQNFLAQATFPVKGLKTGYRAVPLKNNYSEDLELASLLIKIDIFPAKENGDLSPFSGTSLRERGSDASGQLFHGRAREGSFESRYQQPFEDFRISQEHLADHFDSRERRAPRRTRVNGDNRL
B2: PLCγ1^wt: full-length wild-type human PLCγ1 enzyme (protein, UniProt P19174 1-1290, looked up)
chain: MAGAASPCANGCGPGAPSDAEVLHLCRSLEVGTVMTLFYSKKSQRPERKTFQVKLETRQITWSRGADKIEGAIDIREIKEIRPGKTSRDFDRYQEDPAFRPDQSHCFVILYGMEFRLKTLSLQATSEDEVNMWIKGLTWLMEDTLQAPTPLQIERWLRKQFYSVDRNREDRISAKDLKNMLSQVNYRVPNMRFLRERLTDLEQRSGDITYGQFAQLYRSLMYSAQKTMDLPFLEASTLRAGERPELCRVSLPEFQQFLLDYQGELWAVDRLQVQEFMLSFLRDPLREIEEPYFFLDEFVTFLFSKENSVWNSQLDAVCPDTMNNPLSHYWISSSHNTYLTGDQFSSESSLEAYARCLRMGCRCIELDCWDGPDGMPVIYHGHTLTTKIKFSDVLHTIKEHAFVASEYPVILSIEDHCSIAQQRNMAQYFKKVLGDTLLTKPVEISADGLPSPNQLKRKILIKHKKLAEGSAYEEVPTSMMYSENDISNSIKNGILYLEDPVNHEWYPHYFVLTSSKIYYSEETSSDQGNEDEEEPKEVSSSTELHSNEKWFHGKLGAGRDGRHIAERLLTEYCIETGAPDGSFLVRESETFVGDYTLSFWRNGKVQHCRIHSRQDAGTPKFFLTDNLVFDSLYDLITHYQQVPLRCNEFEMRLSEPVPQTNAHESKEWYHASLTRAQAEHMLMRVPRDGAFLVRKRNEPNSYAISFRAEGKIKHCRVQQEGQTVMLGNSEFDSLVDLISYYEKHPLYRKMKLRYPINEEALEKIGTAEPDYGALYEGRNPGFYVEANPMPTFKCAVKALFDYKAQREDELTFIKSAIIQNVEKQEGGWWRGDYGGKKQLWFPSNYVEEMVNPVALEPEREHLDENSPLGDLLRGVLDVPACQIAIRPEGKNNRLFVFSISMASVAHWSLDVAADSQEELQDWVKKIREVAQTADARLTEGKIMERRKKIALELSELVVYCRPVPFDEEKIGTERACYRDMSSFPETKAEKYVNKAKGKKFLQYNRLQLSRIYPKGQRLDSSNYDPLPMWICGSQLVALNFQTPDKPMQMNQALFMTGRHCGYVLQPSTMRDEAFDPFDKSSLRGLEPCAISIEVLGARHLPKNGRGIVCPFVEIEVAGAEYDSTKQKTEFVVDNGLNPVWPAKPFHFQISNPEFAFLRFVVYEEDMFSDQNFLAQATFPVKGLKTGYRAVPLKNNYSEDLELASLLIKIDIFPAKENGDLSPFSGTSLRERGSDASGQLFHGRAREGSFESRYQQPFEDFRISQEHLADHFDSRERRAPRRTRVNGDNRL
modifications: full-length
notes: full-length wild-type human PLCγ1 enzyme

Test: Specific activity of PLC variants in assay 2 (A2)
Type: biochemical
Details: aldol substrate in solution
Procedure: The effect of nucleotide inhibition on PLC activity was measured using either a membrane-based assay with the fluorescent substrate (XY-69) incorporated into liposomes or using a small soluble substrate, Aldol 518 myo-inositol-1-phosphate (Aldol). Both methods utilised the same PLC assay buffer [20 mM Hepes-KOH, 70 mM KCl, 3 mM EGTA, 2.97 mM CaCl2, 2 mM TCEP and fatty acid-free bovine serum albumin (FAF-BSA; 50 μg/ml) (pH 7.5)]. Both assays were performed in low volume black 384-well plates (Greiner Bio-One), were composed of a final assay volume of 20 μl and were monitored in a Clariostar plate reader (BMG Labtech). […] The excitation and emission wavelengths were 588–15 and 642–20, respectively.
A CLARIOstar plate reader (BMG Labtech) was used to measure the production of the fluorescent product. The excitation and emission wavelengths were 485–15 and 520–20, respectively. Each experiment was performed in at least triplicate; in many cases, nine-fold replicates were generated. The enzyme progress curves were plotted for each concentration of nucleotide using Graphpad Prism software. The initial linear rate of product generation was calculated and converted to a % inhibition when compared with the rate of PLC activity in the absence of nucleotide. […]

Row | Molecule | Specific Activity A2 [RFU/min/mg]
1 | B1 | 18974 ± 796
2 | B2 | 18606 ± 685

— publication PMC12687421, “Characterisation of an allosteric site in PLCγ enzymes and implications for development of their specific inhibitors” (Biochemical Journal, 2025)
